The supplement of paper PMC9876800

System: peptide library, one residue held at a place counted from the S/T acceptor
Assay: relative phosphorylation of the sub-library (ratio to the mean residue at this position); higher = residue favoured
Settings: human
Method in brief: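 Purified recombinant kinases, either human or orthologue constructs, were incubated in 384-well plates with biotinylated degenerate peptide sub-libraries. Each sub-library fixed one residue at one position around a central Ser/Thr. Peptides at 50 μM and 50 μM ATP spiked with γ-32P-ATP were used for 90 min under kinase-specific conditions, and spots on streptavidin membranes were phosphorimaged and quantified by densitometry. Relative sub-library phosphorylation is expressed as a ratio to the mean residue at that position.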

Sequence of CSNK1G1, construct: aa21-end (Q9HCP0 21-422, looked up): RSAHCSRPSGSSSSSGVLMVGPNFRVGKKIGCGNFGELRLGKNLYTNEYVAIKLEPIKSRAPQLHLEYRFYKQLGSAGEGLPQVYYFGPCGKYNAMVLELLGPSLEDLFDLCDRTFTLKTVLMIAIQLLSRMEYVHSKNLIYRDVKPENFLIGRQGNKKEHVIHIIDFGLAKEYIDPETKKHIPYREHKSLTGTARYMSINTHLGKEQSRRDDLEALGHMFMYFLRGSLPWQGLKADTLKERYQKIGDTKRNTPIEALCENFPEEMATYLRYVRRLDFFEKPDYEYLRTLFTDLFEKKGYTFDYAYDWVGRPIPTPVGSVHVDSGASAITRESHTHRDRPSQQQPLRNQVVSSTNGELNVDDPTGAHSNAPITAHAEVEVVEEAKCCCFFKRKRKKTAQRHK
Sequence of CHEK1, construct: Full length (O14757 whole entry, looked up): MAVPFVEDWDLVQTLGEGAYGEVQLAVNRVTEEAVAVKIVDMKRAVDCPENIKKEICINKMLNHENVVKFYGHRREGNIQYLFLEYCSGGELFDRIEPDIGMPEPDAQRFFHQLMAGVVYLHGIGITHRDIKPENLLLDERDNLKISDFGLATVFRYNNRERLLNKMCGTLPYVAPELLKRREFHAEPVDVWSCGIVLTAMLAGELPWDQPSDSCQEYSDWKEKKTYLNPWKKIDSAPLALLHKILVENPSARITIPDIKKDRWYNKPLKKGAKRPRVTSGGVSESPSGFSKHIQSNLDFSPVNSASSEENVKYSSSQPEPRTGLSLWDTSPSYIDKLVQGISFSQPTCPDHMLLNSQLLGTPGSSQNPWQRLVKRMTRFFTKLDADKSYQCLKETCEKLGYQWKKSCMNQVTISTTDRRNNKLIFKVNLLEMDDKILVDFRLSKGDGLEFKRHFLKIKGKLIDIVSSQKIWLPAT
Sequence of CDK16, construct: aa107-end (Q00536 107-496, looked up): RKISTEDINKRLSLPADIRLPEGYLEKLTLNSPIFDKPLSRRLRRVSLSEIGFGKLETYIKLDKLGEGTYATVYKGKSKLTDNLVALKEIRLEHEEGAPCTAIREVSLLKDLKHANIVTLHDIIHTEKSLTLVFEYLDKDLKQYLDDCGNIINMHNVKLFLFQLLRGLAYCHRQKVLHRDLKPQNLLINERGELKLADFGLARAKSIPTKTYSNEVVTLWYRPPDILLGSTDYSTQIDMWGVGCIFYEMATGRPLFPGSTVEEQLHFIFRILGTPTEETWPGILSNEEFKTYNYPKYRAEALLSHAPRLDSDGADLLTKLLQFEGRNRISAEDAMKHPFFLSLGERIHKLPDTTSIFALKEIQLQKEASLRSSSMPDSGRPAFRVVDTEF
Sequence of DAPK1, construct: aa1-363 (P53355 1-363, looked up): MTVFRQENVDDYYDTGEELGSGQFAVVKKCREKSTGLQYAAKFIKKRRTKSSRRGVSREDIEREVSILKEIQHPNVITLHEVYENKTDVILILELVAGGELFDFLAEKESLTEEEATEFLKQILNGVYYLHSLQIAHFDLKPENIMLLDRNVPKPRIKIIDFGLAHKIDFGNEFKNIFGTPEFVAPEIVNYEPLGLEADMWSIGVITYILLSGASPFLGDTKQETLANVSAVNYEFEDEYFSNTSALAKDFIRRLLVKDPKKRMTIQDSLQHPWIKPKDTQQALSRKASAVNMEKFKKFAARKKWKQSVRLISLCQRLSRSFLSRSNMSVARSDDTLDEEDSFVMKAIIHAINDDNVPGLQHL

CDK16, construct: aa107-end (from UniProt Q00536)
relative phosphorylation
Settings	at +1	at +2	at +3	at +4	at -1	at -2	at -3	at -4	at -5
A fixed	0.223	0.675	0.758	0.72	1.18	1.28	1.24	0.912	1.03
D fixed	0.152	0.587	0.335	0.457	0.539	0.439	0.692	0.863	0.745
E fixed	0.15	0.385	0.316	0.305	0.491	0.464	0.839	0.817	0.699
F fixed	0.155	0.368	1.03	0.593	0.499	0.512	0.478	0.455	0.542
G fixed	0.947	0.572	0.702	1.38	2.12	0.887	2.02	0.951	0.854
H fixed	0.218	1.25	0.82	1.16	0.92	0.797	1.27	1.08	1.68
I fixed	0.147	0.455	0.842	0.588	0.26	0.834	0.433	0.852	0.625
K fixed	0.253	3.26	0.872	2.54	1.37	0.617	0.915	2.31	2.51
L fixed	0.177	1.05	2.59	0.679	0.582	1.18	0.93	1.15	1.16
M fixed	0.168	0.663	1.97	0.757	0.722	1.12	0.666	0.755	0.722
N fixed	0.225	1.17	0.964	1.09	1.16	1.08	1.19	1.78	1.42
P fixed	13.1	0.696	1.45	0.842	1.77	3.72	1.93	1.11	0.908
Q fixed	0.246	1.26	0.973	1.06	1.28	0.988	1.06	1.01	0.95
R fixed	0.23	2.63	0.996	2.89	1.67	0.715	0.973	1.02	1.08
V fixed	0.177	0.676	0.937	0.66	0.399	0.941	0.643	0.598	0.657
W fixed	0.221	0.702	0.877	0.687	0.991	0.83	0.85	0.675	0.902
Y fixed	0.17	0.608	0.564	0.587	1.04	0.588	0.871	0.653	0.509
pThr fixed	0.435	0.648	0.998	0.332	0.397	0.764	0.87	0.767	0.657
pTyr fixed	0.801	0.513	1.11	0.42	0.49	0.698	0.925	0.584	0.723

CHEK1, construct: Full length (from UniProt O14757)
relative phosphorylation
Settings	at +1	at +2	at +3	at +4	at -1	at -2	at -3	at -4	at -5
A fixed	0.806	1.04	0.824	0.997	0.779	1.18	0.579	1.17	0.706
D fixed	1.03	1.19	1.4	1.19	1.06	0.387	0.353	0.714	0.379
E fixed	0.981	0.932	1.01	0.882	0.709	0.977	0.853	1.15	0.261
F fixed	1.43	0.719	0.731	0.754	0.637	1.16	0.39	0.817	2.06
G fixed	1.21	0.978	1.16	1.18	0.915	0.619	0.685	0.811	0.331
H fixed	1.21	1.38	1.2	1.17	1.27	2.01	2.02	1.14	0.51
I fixed	0.801	0.808	0.832	0.968	0.396	0.56	0.253	0.952	2.21
K fixed	0.614	0.531	0.588	0.687	1.54	0.887	2.36	1.45	0.405
L fixed	0.98	0.756	0.908	1.18	0.805	0.738	0.281	0.919	2.9
M fixed	1.57	0.935	0.985	1.06	0.901	1.14	0.625	1.26	1.98
N fixed	1.65	1.82	1.47	1.23	1.68	1.42	0.992	0.9	0.361
P fixed	0.429	0.973	1.2	1.57	1.84	0.547	1.37	0.458	0.49
Q fixed	1.19	1.36	1.15	1.12	1.36	1.17	0.995	1.07	0.422
R fixed	0.599	0.692	0.57	0.547	0.98	0.895	3.45	1.41	0.759
V fixed	0.686	0.96	0.802	0.713	0.48	0.701	0.323	1.05	1.25
W fixed	0.94	1.01	1.18	0.874	0.682	1.2	0.857	0.829	1.32
Y fixed	0.869	0.921	0.995	0.886	0.963	1.39	0.617	0.902	0.661
pThr fixed	0.831	0.822	0.733	0.892	0.188	0.139	0.198	0.311	0.164
pTyr fixed	0.821	1.17	0.94	0.812	0.495	0.382	0.193	0.343	0.443

CSNK1G1, construct: aa21-end (from UniProt Q9HCP0)
relative phosphorylation
Settings	at +1	at +2	at +3	at +4	at -1	at -2	at -3	at -4	at -5
A fixed	0.872	1.05	1.29	1.13	1.38	2.1	0.918	1.23	1.22
D fixed	0.317	0.551	0.757	0.828	0.406	1	5.14	1.25	1.11
E fixed	0.4	0.293	0.823	0.662	0.47	1.13	2.32	1.12	0.901
F fixed	0.853	1.21	1.31	1.45	0.713	0.511	0.471	0.984	0.913
G fixed	0.611	1.02	1.62	1.19	1.53	1.19	0.734	1.07	1.04
H fixed	0.731	1.71	1.03	0.976	0.983	0.714	0.633	0.918	1.1
I fixed	2.43	1.06	0.755	0.921	0.927	1.11	0.42	0.799	0.734
K fixed	0.461	1.03	0.731	0.812	1.27	0.674	0.644	0.981	1.44
L fixed	2.32	0.922	0.962	0.894	1.06	0.949	0.482	0.81	0.892
M fixed	1.77	0.951	0.957	0.943	1.01	0.63	0.389	0.796	0.801
N fixed	0.619	0.976	0.842	0.786	0.597	1.53	0.758	0.877	1.02
P fixed	0.326	0.369	0.774	1.15	1.36	1.08	0.646	1	0.87
Q fixed	0.685	0.798	0.732	0.839	0.886	1.08	0.546	0.76	0.798
R fixed	0.771	1.01	0.884	0.713	1.28	0.919	1.07	0.814	1.05
V fixed	2.03	1.01	0.76	0.947	0.978	1.26	0.582	0.763	0.875
W fixed	0.861	1.25	1.4	1.35	1.25	0.608	0.636	1.72	1.24
Y fixed	0.935	1.79	1.37	1.41	0.898	0.511	0.604	1.11	1
pThr fixed	0.575	0.524	0.83	1.73	0.534	3.07	34	4.36	1.61
pTyr fixed	0.734	3.17	4.7	1.83	0.64	2.15	5.42	3.67	2.21

DAPK1, construct: aa1-363 (from UniProt P53355)
relative phosphorylation
Settings	at +1	at +2	at +3	at +4	at -1	at -2	at -3	at -4	at -5
A fixed	0.752	0.793	0.813	0.817	0.743	1.27	0.626	0.975	0.91
D fixed	1.81	0.767	0.98	0.853	0.83	0.333	0.336	0.665	0.58
E fixed	1.76	0.953	0.979	0.857	0.63	0.347	0.374	0.82	0.622
F fixed	0.867	0.998	0.999	1.13	0.771	0.4	0.45	0.844	0.773
G fixed	1.06	0.651	0.978	0.935	0.847	0.662	0.62	0.937	1.03
H fixed	0.714	0.936	1	1.45	1.24	0.987	0.754	1	1.05
I fixed	0.877	1.05	1.95	0.913	0.701	0.308	0.418	0.871	0.955
K fixed	0.476	0.717	0.665	0.72	1.35	1.38	2.1	1.63	1.67
L fixed	0.792	1.92	1.39	0.777	1.18	0.354	0.385	0.796	1.02
M fixed	1.12	1.71	1.04	1.01	1.14	0.387	0.421	0.959	0.954
N fixed	1.47	0.871	0.818	0.985	1.4	0.672	0.483	0.93	0.842
P fixed	0.353	0.724	0.693	0.994	1.04	0.338	0.558	0.677	0.756
Q fixed	2.1	1.03	0.767	0.816	1.06	0.742	0.632	1.03	0.828
R fixed	0.659	1.06	0.832	0.912	1.64	7.29	7.46	2.31	2.36
V fixed	0.821	0.912	1.3	0.792	0.691	0.345	0.297	0.77	0.722
W fixed	0.698	0.827	0.856	1.7	0.695	0.732	0.592	0.856	0.73
Y fixed	0.68	1.08	0.936	1.33	1.05	0.46	0.502	0.928	1.2
pThr fixed	3.07	1.42	1.26	1.87	0.889	0.618	0.741	0.996	1.17
pTyr fixed	1.87	1.41	2.43	1.56	1.33	0.71	0.721	0.94	1.15
